The subject of one assay is HEK293 cells. In words: Danoprevir-induced EGFP reporter expression in transduced HEK293 cells, flow cytometry. It counts as cell-based.
For the next assay, the system named is Jurkat cells. Nature of the assay: Danoprevir-induced GFP/EGFP reporter expression in transduced Jurkat cells, flow cytometry. As to conditions: for induced GFP expression (gMFI): 500 nM danoprevir 24 hours, ZF DBD-NS3a / DNCR2-TAD panel, YB_TATA minimal promoter, FIG. 11. Type of assay: cell-based.
Where [1] appears, read: titration of danoprevir, IPV16/TFV1 versus IPV16/TFV23, FIG. 18.

Entries after “also recorded” stand apart in the source; their conditions may differ.

With `CC(C)(C)OC(=O)N[C@H]1CCCCC/C=C\[C@@H]2C[C@@]2(C(=O)NS(=O)(=O)C2CC2)NC(=O)[C@@H]2C[C@@H](OC(=O)N3Cc4cccc(F)c4C3)CN2C1=O` [danoprevir, (2R,6S,12Z,13aS,14aR,16aS)-14a-[(Cyclopropylsulfonyl)carbamoyl]-6-({[(2-methyl-2-propanyl)oxy]carbonyl}amino)-5,16-dioxo-1,2,3,5,6,7,8,9,10,11,13a,14,14a,15,16,16a-hexadecahydrocyclopropa[e]pyrrolo[1,2-a][1,4]diazacyclopentadecin-2-yl 4-fluoro-1,3-dihydro-2H-isoindole-2-carboxylate, reference compound], in the assay on HEK293 cells (setting [1]), the “danoprevir EC50 of EGFP expression” value is given as “equivalent” and the “maximal EGFP expression levels” value is listed as “equivalent”.

B1: ANR-SPOP: E3 ligase SPOP fused to the apo-NS3a reader ANR, SEQ ID NO: 157, expressed from IPV18 or TFV23 (protein)
chain: GELDELVYLLDGPGYDPIHSDVVTRGGSHLFNFSGSSGGSGVNISGQNTMNMVKVPECRLADELGGLWENSRFTDCCLCVAGQEFQAHKAILAARSPVFSAMFEHEMEESKKNRVEINDVEPEVFKEMMCFIYTGKAPNLDKMADDLLAAADKYALERLKVMCEDALCSNLSVENAAEILILADLHSADQLKTQAVDFINYHASDVLETSGWKSMVVSHPHLVAEAYRSLASAQCPFLGPPRKRLKQS
modifications: Synthetic polypeptide ANR-SPOP
For the molecule B1, the “maximal danoprevir-induced EGFP expression, element expressed inducibly from the inducible promoter vector” value in the assay with HEK293 cells (100 nM danoprevir, HEK293 cells, plot 1725) was “reduced the maximal danoprevir-induced EGFP expression”. In addition, in the assay with HEK293 cells (100 nM danoprevir, HEK293 cells, plot 1730), the “danoprevir-induced EGFP expression, element expressed from the transcription factor vector” value is given as “maintaining high danoprevir-induced expression”. In the assay with HEK293 cells (DMSO, IPV16/TFV23 versus IPV16/TFV1, plot 1800), the “background EGFP expression level, fold lower than the system without ANR-SPOP” value is listed as “about 3 times”. The “background (leaky) EGFP expression, DMSO” value in the assay on HEK293 cells (HEK293 cells, compared to wild type cells, FIG. 16-18) is reported as “effectively removed any leaky background expression of EGFP; also recorded: indistinguishable from wild type HEK293 cells”.

B2: ZFHIV2: zinc finger DNA binding domain fused to NS3a (NS3a-ZFHIV2, SEQ ID NO: 71) (protein)
chain: KKKGSVVIVGRINLSGDTAYAQQTRGEEGCQETSQTGRDKNQVEGEVQIVSTATQTFLATSINGVLWTVYHGAGTRTIASPKGPVTQMYTNVDKDLVGWQAPQGSRSLTPCTCGSSDLYLVTRHADVIPVRRRGDSRGSLLSPRPISYLKGSAGGPLLCPAGHAVGIFRAAVSTRGVAKAVDFIPVESLETTMRSPGSGAAASGGGGSGGGGSGGTPPHERPFQCRICMRNFSNNAMLVRHTRTHTGEKPFQCRICMRNFSLSQTLQRHLRTHTGEKPFQCRICMRNFSMQGNLSRHLKTHLRGS
modifications: Synthetic polypeptide NS3a-ZFHIV2
In the case of B2, the “induced GFP expression (gMFI)” value in the assay with Jurkat cells was “highest induced GFP levels”. Besides, in the assay on Jurkat cells (DNCR2-VPRmini, FIG. 12), the “induction of GFP expression (gMFI), 12×RE versus 6×RE” value is reported as “lower induction”. In the assay with Jurkat cells (DNCR2-VPRmini, TFV19, TFV20, FIG. 12), the “induction of GFP expression (gMFI), leucine zipper (LZ) between NS3a and ZF versus direct fusion” value was “higher maximal induction”.

B3: p65-HSF1: transcriptional activation domain of all-human components fused to DNCR2 (SEQ ID NO: 52) (protein)
chain: SSDEEEARELIERAKEAAERAQEAAERTGDPRVRELARELKRLAQEAAEEVKRDPSSSDVNEALKLIVEAIEAAVDALEAAERTGDPEVRELARELVRLAVEAAEEVQRNPSSSDVNEALHSIVYAIEAAIFALEAAERTGDPEVRELARELVRLAVEAAEEVQRNPSSRNVEHALMRIVLAIYLAEENLREAEESGDPEKREKARERVREAVERAEEVQRDPSGWLNHSGGGSGVDGSPKKKRKVGSVLPQAPAPAPAPAMVSALAQAPAPVPVLAPGPPQAVAPPAPKPTQAGEGTLSEALLQLQFDDEDLGALLGNSTDPAVFTDLASVDNSEFQQLLNQGIPVAPHTTEPMLMEYPEAITRLVTGAQRPPDPAPAPLGAPGLPNGLLSGDEDFSSIADMDFSALLSGSGGFSVDTSALLDLFSPSVTVPDMSLPDLDSSLASIQELLSPQEPPRPPEAENSSPDSGKQLVHYTAQPLFLLDPGSVDTGSNDLPVLFELGEGSYFSEGDGFAEDPTISLLTGSEPPKAKDPTVS
modifications: Synthetic polypeptide DNCR2-p65mini-HSF1
For the molecule B3, the “induced GFP expression (gMFI)” value with Jurkat cells was “moderate induction levels”.

B4: p65: transcriptional activation domain fused to DNCR2 (SEQ ID NO: 51) (protein)
chain: SSDEEEARELIERAKEAAERAQEAAERTGDPRVRELARELKRLAQEAAEEVKRDPSSSDVNEALKLIVEAIEAAVDALEAAERTGDPEVRELARELVRLAVEAAEEVQRNPSSSDVNEALHSIVYAIEAAIFALEAAERTGDPEVRELARELVRLAVEAAEEVQRNPSSRNVEHALMRIVLAIYLAEENLREAEESGDPEKREKARERVREAVERAEEVQRDPSGWLNHSGGGSGVDGSPKKKRKVGSVLPQAPAPAPAPAMVSALAQAPAPVPVLAPGPPQAVAPPAPKPTQAGEGTLSEALLQLQFDDEDLGALLGNSTDPAVFTDLASVDNSEFQQLLNQGIPVAPHTTEPMLMEYPEAITRLVTGAQRPPDPAPAPLGAPGLPNGLLSGDEDFSSIADMDFSALL
modifications: Synthetic polypeptide DNCR2-p65mini
Regarding B4, in the assay with Jurkat cells, the “induced GFP expression (gMFI)” value is “very weak”.

The values are drawn from US20240398993A1, “SMALL MOLECULE-REGULATED GENE EXPRESSION SYSTEM” (Outpace Bio, Inc., priority 2021, published 2024).
